Experimental data as given in patent US20160108416.

Tests used:
[1] = target: atToc159 (At4g02510) (UniProt O81283)
[2] = target: T1, atToc33 (At1g02280) (UniProt O23680)
T1 sequence: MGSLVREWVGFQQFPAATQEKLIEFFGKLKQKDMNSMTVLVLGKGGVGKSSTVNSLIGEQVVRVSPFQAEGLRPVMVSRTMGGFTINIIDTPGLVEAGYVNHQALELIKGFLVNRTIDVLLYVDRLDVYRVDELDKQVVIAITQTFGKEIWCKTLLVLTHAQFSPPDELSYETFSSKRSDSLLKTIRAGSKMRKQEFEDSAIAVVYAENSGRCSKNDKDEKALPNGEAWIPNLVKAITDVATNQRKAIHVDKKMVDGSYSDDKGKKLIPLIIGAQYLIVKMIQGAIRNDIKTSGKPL

[3] = target: T2, atToc75-III (At3g46740) (UniProt Q9STE8)
T2 sequence: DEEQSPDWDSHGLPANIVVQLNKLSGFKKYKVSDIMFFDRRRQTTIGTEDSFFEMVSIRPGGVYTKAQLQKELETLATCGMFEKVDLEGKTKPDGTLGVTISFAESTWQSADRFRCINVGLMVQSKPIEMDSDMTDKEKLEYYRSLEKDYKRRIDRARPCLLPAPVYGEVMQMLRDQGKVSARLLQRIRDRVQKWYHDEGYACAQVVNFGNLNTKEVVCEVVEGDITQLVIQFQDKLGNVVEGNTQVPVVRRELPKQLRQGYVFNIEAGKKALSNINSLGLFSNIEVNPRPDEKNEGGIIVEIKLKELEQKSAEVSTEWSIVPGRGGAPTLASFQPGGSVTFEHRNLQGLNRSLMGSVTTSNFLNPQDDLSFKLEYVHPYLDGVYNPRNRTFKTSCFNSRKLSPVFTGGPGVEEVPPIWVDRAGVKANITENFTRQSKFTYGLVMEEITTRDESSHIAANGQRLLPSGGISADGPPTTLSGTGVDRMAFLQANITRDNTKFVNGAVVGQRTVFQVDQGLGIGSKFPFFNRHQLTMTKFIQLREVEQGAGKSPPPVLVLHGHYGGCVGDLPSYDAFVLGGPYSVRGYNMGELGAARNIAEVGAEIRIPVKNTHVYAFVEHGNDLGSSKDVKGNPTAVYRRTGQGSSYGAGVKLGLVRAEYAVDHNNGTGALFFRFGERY

Chain of UniProt O81283 (O81283 whole entry): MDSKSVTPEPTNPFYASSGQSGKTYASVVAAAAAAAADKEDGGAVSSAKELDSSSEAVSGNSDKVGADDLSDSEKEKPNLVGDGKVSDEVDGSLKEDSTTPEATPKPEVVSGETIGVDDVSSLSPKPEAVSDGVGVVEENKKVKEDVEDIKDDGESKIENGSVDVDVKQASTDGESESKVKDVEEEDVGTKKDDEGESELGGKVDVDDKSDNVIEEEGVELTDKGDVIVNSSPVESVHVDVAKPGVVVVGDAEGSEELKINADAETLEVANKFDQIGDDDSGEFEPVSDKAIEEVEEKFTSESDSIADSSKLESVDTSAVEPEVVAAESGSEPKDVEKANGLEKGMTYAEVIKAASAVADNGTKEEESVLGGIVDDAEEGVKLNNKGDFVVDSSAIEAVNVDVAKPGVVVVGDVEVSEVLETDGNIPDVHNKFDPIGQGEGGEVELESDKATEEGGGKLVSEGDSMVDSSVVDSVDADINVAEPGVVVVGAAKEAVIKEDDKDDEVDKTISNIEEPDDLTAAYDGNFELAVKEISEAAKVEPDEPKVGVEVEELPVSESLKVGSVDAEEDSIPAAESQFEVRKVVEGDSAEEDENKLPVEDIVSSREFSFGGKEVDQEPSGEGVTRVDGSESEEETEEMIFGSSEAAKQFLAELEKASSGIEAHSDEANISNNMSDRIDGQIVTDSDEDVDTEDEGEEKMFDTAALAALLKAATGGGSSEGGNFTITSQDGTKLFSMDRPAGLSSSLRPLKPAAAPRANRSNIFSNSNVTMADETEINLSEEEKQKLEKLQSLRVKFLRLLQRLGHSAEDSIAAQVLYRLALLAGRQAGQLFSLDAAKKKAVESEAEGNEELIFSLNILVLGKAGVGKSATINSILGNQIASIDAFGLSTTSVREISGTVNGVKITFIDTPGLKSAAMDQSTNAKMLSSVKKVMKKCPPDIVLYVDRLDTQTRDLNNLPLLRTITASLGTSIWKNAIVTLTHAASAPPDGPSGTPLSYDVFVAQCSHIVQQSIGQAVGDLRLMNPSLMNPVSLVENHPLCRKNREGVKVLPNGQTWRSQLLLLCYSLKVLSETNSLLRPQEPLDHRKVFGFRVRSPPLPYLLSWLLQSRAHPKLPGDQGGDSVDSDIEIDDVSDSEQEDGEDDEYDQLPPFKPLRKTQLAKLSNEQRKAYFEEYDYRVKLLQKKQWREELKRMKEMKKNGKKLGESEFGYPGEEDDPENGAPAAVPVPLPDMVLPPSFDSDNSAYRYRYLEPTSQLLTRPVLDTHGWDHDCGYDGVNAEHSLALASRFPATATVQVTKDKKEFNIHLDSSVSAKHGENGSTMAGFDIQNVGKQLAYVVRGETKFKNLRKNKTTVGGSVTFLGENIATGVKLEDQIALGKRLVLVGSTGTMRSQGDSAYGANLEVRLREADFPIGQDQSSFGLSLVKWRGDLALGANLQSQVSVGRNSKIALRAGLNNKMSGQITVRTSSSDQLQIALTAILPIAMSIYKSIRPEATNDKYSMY

B1: GST-SP1flex (SP1 intermembrane space and cytosolic domains joined by a flexible linker, N-terminal GST tag) (enzyme, part only; not given: N-terminal GST tag)
chain, part: RSSGRDAEVLETVTRVNQLKELAQLLELDSKILPFIVAVSGRVGSETPIKCEHSGIRGVIVEETAEQHFLKHNETGSWVQDSALMLSMSKEVPWFLDDGTSRVHVMGARGATGFALTVGSEVFEESGRSLVRGTLDYLQGLKMLGVKRIERVLPTGIPLTIVGEAVKDDIGEFRIQKPDRGPFYVSSKSLDQLISNLGKWSRLYKIDSVLERRRRRQLQKRVLDAAAKRAELESEGSNGTRESISDSTKKEDAVPDLCVICLEQEYNAVFVPCGHMCCCTACSSHLTSCPLCRRRIDLAVKTYRH
For B1, which “In vitro ubiquitination (high-molecular-weight species of radiolabelled substrate)” value (from here on “In vitro ubiquitination”) [1] is on record?
The value was “for each TOC substrate the extent of ubiquitination was enhanced in the presence of SP1”.

And the “In vitro ubiquitination” value [2]?
The value was “for each TOC substrate the extent of ubiquitination was enhanced in the presence of SP1”.

And the “In vitro ubiquitination” value [3]?
Its value is “for each TOC substrate the extent of ubiquitination was enhanced in the presence of SP1”.
